Legend:
[1] = test system: bevacizumab (Avastin) (humanized IgG (organism not stated)); test: bead pull-down, HT-RPLC of residual solution; settings: 50 ug/mL bevacizumab, Plasma samples diluted 10x in 175 mM trehalose, 42 mM NaH2PO4, 8 mM Na2HPO4, 0.4% Tween-20, pH 7.4, 0.1% peptone, room temperature, 1 h, bead comparison: beads …; for fraction of antibody not captured (% not captured): immobilization effect, 5'-aminohexyl
[2] = test system: bevacizumab (Avastin) (humanized IgG (organism not stated)); test: bead pull-down, HT-RPLC of eluate; settings: 10 ug/mL in human plasma, 5'-biotin, Plasma samples diluted 10x in 175 mM trehalose, 42 mM NaH2PO4, 8 mM Na2HPO4, 0.4% Tween-20, pH 7.4, 0.1% peptone, room temperature, 1 h, bead comparison: beads …

Row | Sequence | fraction of antibody not captured (% not captured) ([1]; carboxylic acid beads) | fraction of antibody not captured (% not captured) ([1]; tosylactivated beads) | binding signal ([2]; first use of beads) | binding signal ([2]; third use of beads) | binding signal ([1]; streptavidin beads, 5'-biotin)
1 | GCGGTTGGTGGTAGTTACGTTCGC [anti-bevacizumab DNA aptamer, 5'-aminohexyl] | 85.5 | 75.8 |  |  | 
2 | GCGGTTGGTGGTAGTTACGTTCGC [anti-bevacizumab DNA aptamer, 5'-biotin] |  |  | 101 % recovery | 97.3 % recovery | > 99.8 % captured

From PMC6429324
